# Results from patent US20100190699A1 (INDIANA UNIVERSITY RESEARCH AND TECHNOLOGY, published 2010).
# Tests used:
# Assay in all cases: cell-based or functional assay
# glucagon receptor [1] = target: T1, glucagon receptor (UniProt P47871 26-477, limits assumed)
# glucagon receptor [2] = target: T1, glucagon receptor; remark: listed apart in the source
# GLP-1 receptor = GLP-1 receptor (UniProt P43220 24-463, limits assumed)
# T1 sequence (P47871 26-477 limits assumed): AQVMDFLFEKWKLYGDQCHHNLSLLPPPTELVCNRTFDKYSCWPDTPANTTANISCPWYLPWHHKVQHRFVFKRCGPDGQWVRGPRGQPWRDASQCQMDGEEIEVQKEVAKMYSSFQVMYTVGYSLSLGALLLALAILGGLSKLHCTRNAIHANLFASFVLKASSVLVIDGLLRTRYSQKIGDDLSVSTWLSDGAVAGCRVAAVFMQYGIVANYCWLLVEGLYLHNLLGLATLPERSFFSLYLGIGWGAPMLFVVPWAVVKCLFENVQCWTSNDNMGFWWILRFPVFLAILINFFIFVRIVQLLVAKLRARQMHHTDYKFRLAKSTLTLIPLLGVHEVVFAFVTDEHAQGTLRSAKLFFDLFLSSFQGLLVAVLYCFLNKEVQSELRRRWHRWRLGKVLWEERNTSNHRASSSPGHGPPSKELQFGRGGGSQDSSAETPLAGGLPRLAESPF
binder,measurement,setting,value
"HSQGTFTSDYSKYLDSRRAQDFVQWLMNKK [glucagon analog K29, K30]","Observed EC50 (cAMP induction), Test 1",glucagon receptor [1],0.89 nM
HSQGTFTSDYSKYLDSRRAQDFVQWLMNTE [glucagon analog E30],"Observed EC50 (cAMP induction), Test 2",glucagon receptor [1],0.04 nM
"HSQGTFTSDYSKYLDSRRAQDFVQWLMDTE [glucagon analog D28, E30]","Observed EC50 (cAMP induction), Test 3",glucagon receptor [1],0.05 nM
HSQGTFTSDYSRYLDSRRAQDFVQWLMNK [Glucagon R12 K29],"cAMP Induction, EC50 (luciferase reporter)",glucagon receptor [2],0.81 nM
same,"cAMP Induction, EC50 (luciferase reporter)",GLP-1 receptor,0.41 nM
"HSQGTFTSDYSKYLESRRAQDFVQWLMDT [glucagon analog D28, E15]","Observed EC50 (cAMP induction), Test 3",glucagon receptor [1],0.15 nM
"HSQGTFTSDYSKYLDSRRAQDFVQWLMDE [glucagon analog D28, E29]","Observed EC50 (cAMP induction), Test 3",glucagon receptor [1],0.03 nM
"HSQGTFTSDYSKYLDSRRAQDFVQWLMNTKK [glucagon analog K30, K31]","Observed EC50 (cAMP induction), Test 2",glucagon receptor [1],0.12 nM
